Measured values reported in US20030224397A1 (Genentech, published 2003).
Substitutions are numbered along the chain they refer to. In names and notes the source's numbering stands. Read-outs that look alike come from different tables or passages of the source.

B1: 34-TKKT (VH-(T28D, S100aR)+VL-(S26T, Q27K, D28K, S30T)) (Fab, V domains shown)
VH: EVQLVESGGGLVQPGGSLRLSCAASGYDFTNYGMNWVRQAPGKGLEWVGWINTYTGEPTYAADFKRRFTFSLDTSKSTAYLQMNSLRAEDTAVYYCAKYPHYYGRSHWYFDVWGQGTLVTVSS
VL: DIQLTQSPSSLSASVGDRVTITCSATKKITNYLNWYQQKPGKAPKVLIYFTSSLHSGVPSRFSGSGSGTDFTLTISSLQPEDFATYYCQQYSTVPWTFGQGTKVEIKR
notes: Fab of Y0101 with both altered chains
B2: Fab Y0101 variant, heavy chain E56K (Fab, name in Kabat numbering, V domains shown)
VH: B1 VH with D28T, E57K, R105S
VL: B1 VL with T26S, K27Q, K28D, T30S
notes: Fab of Y0101 with one heavy chain substitution
B3: Fab Y0101 variant, light chain S26K, D28K, S30K (Fab, V domains shown)
VH: B1 VH with D28T, R105S
VL: B1 VL with T26K, K27Q, T30K
notes: Fab of Y0101 with several light chain substitutions
B4: Fab Y0101 variant, light chain S52K, S53K, L54T (Fab, V domains shown)
VH: B1 VH with D28T, R105S
VL: B1 VL with T26S, K27Q, K28D, T30S, S52K, S53K, L54T
notes: as for B3
B5: Fab Y0101 variant, heavy chain T28D, S100aR (Fab, V domains shown)
VH: B1 VH
VL: B1 VL with T26S, K27Q, K28D, T30S
notes: Fab; also called altered heavy chain T28D-S100aR
B6: Fab Y0101 variant, heavy chain S100aR (Fab, name in Kabat numbering, V domains shown)
VH: B1 VH with D28T
VL: B1 VL with T26S, K27Q, K28D, T30S
notes: as for B2
B7: Fab Y0101 variant, heavy chain T28K (Fab, name in Kabat numbering, V domains shown)
VH: B1 VH with D28K, R105S
VL: B1 VL with T26S, K27Q, K28D, T30S
notes: as for B2
B8: Fab Y0101 variant, light chain Y32R (Fab, V domains shown)
VH: B1 VH with D28T, R105S
VL: B1 VL with T26S, K27Q, K28D, T30S, Y32R
notes: Fab of Y0101 with one light chain substitution
B9: Fab Y0101 variant, heavy chain Y99K (Fab, name in Kabat numbering, V domains shown)
VH: B1 VH with D28T, Y103K, R105S
VL: B1 VL with T26S, K27Q, K28D, T30S
notes: as for B2
B10: Fab Y0101 variant, light chain S26K, Q27K, D28N, S30T (Fab, V domains shown)
VH: B1 VH with D28T, R105S
VL: B1 VL with T26K, K28N
notes: as for B3
B11: Fab Y0101 variant, heavy chain Y99R (Fab, name in Kabat numbering, V domains shown)
VH: B1 VH with D28T, Y103R, R105S
VL: B1 VL with T26S, K27Q, K28D, T30S
notes: as for B2
B12: Fab Y0101 variant, light chain L54K (Fab, V domains shown)
VH: B1 VH with D28T, R105S
VL: B1 VL with T26S, K27Q, K28D, T30S, L54K
notes: as for B8

Key:
[1] = target: T1, short isoform of VEGF (8-109) (UniProt P15692 214-315); test: SPR (BIAcore), VEGF immobilized, 25 mM Tris, 150 mM NaCl, 25 C
T1 construct: range 8-109; Immobilized by amine coupling for SPR; in solution for the fluorescence assay; also called vascular endothelial growth factor
T1 sequence (looked up): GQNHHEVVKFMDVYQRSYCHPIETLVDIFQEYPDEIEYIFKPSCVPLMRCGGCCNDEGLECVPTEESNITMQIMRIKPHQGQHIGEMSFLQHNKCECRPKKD

[2] = target: T1, short isoform of VEGF (8-109); test: calculated from k-1 and k1, 0 M NaCl data
[3] = target: T1, short isoform of VEGF (8-109); test: fluorescence-based association assay in solution, 25 mM Tris pH 7.2, 37 C
Protocol: (§1) In the experiments described here, the fluorescence emission intensity (λexcitation=295 nm; λₑₘᵢₛₛᵢₒₙ=340 nm, 16 nm bandpass) was measured using an 8000-series SLM-Aminco spectrophotometer (THERMOSPECTRONIC®) as VEGF was added to a stirred cuvette containing approximately 10 nM Fab in 25 mM Tris, pH 7.2, held at 37° C.

[4] = target: T1, short isoform of VEGF (8-109); test: SPR (BIAcore), VEGF immobilized, 25 mM Tris pH 7.2, 0 M NaCl, 37 C
Protocol: (§2) Dissociation rates were measured by surface plasmon resonance on a BIACORE-2000® instrument (BIAcore, Inc.) as described previously (Muller et al. Structure 6(9): 1153-67 (1998)). VEGF was immobilized by amine coupling to a B1 chip at approximately 10 resonance-response units. Fab binding was measured at 1 μM, 500 nM, 250 nM, 125 nM, 62.5 nM, and 31.3 nM. Dissociation was calculated assuming a one-to-one binding model. All experiments were performed at 37° C. in phosphate buffered saline solution, pH 7.2, containing 0.05% Tween-20, 0.01% NaN3 and at a flow rate of 20 μL min⁻¹.
(§3) Residues are numbered according the Kabat system (Kabat et al. Sequences of Proteins of Immunological Interest, 5th Edition., National Institute of Health, Bethesda, Md. (1991)). k₁ determined by the fluorescence-based assay (±standard deviation of three experiments). k₋₁ determined by surface plasmon resonance (±standard deviation of 12 experiments). k₁ and k₋₁ (0 M NaCl) experiments were performed in 25 mM Tris, pH 7.2, at 37° C. k₋₁ (0.15 M NaCl) experiments performed in 25 mM Tris, 150 mM NaCl, at 25° C.

[5] = target: T1, short isoform of VEGF (8-109); test: fluorescence-based association assay at varied salt concentration
Protocol: as §1

[6] = target: T1, short isoform of VEGF (8-109); test: fluorescence-based association assay in solution, 25 mM Tris pH 7.2, 37 C; remark: listed apart in the source
Protocol: as §1, §3

[7] = target: T1, short isoform of VEGF (8-109); test: SPR (BIAcore), VEGF immobilized, 25 mM Tris pH 7.2, 0 M NaCl, 37 C; remark: listed apart in the source
Protocol: as §2
as §3, with “three experiments, wild-type only).” for “three experiments).”

[8] = target: T1, short isoform of VEGF (8-109); test: calculated from k-1 and k1, 0 M NaCl data; remark: listed apart in the source
[9] = target: T1, short isoform of VEGF (8-109); test: fluorescence-based association assay in solution, 25 mM Tris pH 7.2, 37 C; remark: listed apart in the source
Protocol: as §1
as §3, with “three experiments, wild-type only).” for “three experiments).”

[10] = target: T1, short isoform of VEGF (8-109); test: SPR (BIAcore), VEGF immobilized, 25 mM Tris, 150 mM NaCl, 25 C; remark: listed apart in the source

Row | Binder | kon [6] [M⁻¹ s⁻¹] | koff [7] [s⁻¹] | Kd [8] [nM] | kon [9] [M⁻¹ s⁻¹] | other results
1 | B1 | 3.3e+06 |  |  |  | koff [1]: 2e-05 s⁻¹; Kd [2]: 0.08 nM; fold higher association rate than Y0101 [3]: 6 fold; koff [4]: 0.00026 s⁻¹; fold difference in association rate against Y0101 in 150 mM NaCl [5]: < 2 fold
2 | B2 |  | 0.00044 | 0.9 | 480000 | 
3 | B3 | 1.3e+06 |  |  |  | 
4 | B4 | 1.3e+06 |  |  |  | 
5 | B5 | 1.4e+06 |  |  |  | koff [1]: 0.00011 s⁻¹
6 | B6 |  | 0.00024 | 0.3 | 870000 | koff [10]: 7e-05 s⁻¹
7 | B7 |  |  |  | 360000 | 
8 | B8 |  |  |  | 710000 | 
9 | B9 |  | 0.00015 | 0.4 | 380000 | koff [10]: 0.00014 s⁻¹
10 | B10 | 610000 |  |  |  | 
11 | B11 |  | 0.00014 | 0.2 | 600000 | koff [10]: 0.00016 s⁻¹
12 | B12 |  |  |  | 440000 | 
